Bounds are passed on as bounds.

The record followed here is PMC6195595 (2018).

Common to all, as to assay: ITC
Background: ITC needs no label: the signal is the heat of the interaction.

In assay [1] the target is T1, Kj12C-^NDD Q26K, E28A (modified Kj12C-^NDD) (Xenorhabdus stockiae KJ12.1).
T1 chain: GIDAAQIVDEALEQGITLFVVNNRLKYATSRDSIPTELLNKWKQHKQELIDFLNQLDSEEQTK

In assay [2] the target is Kj12A-^CDD peptide (C-terminal docking domain of Kj12A) (Xenorhabdus stockiae KJ12.1).
Assay [3] has as its target Kj12B-^CDD_(short) peptide L1564A (Xenorhabdus stockiae KJ12.1, L1564A (stands in the printed letters)).
Assay [4] concerns the target Kj12B-CDDshort R1565E peptide (Xenorhabdus stockiae KJ12.1, R1565E (stands in the printed letters)).
Assay [5] deals with Kj12B-^CDD_(short) peptide G1566A (printed as G1565 replaced with alanine) (Xenorhabdus stockiae KJ12.1).

B1: Kj12B-^CDD peptide (C-terminal docking domain of Kj12B) (peptide)
peptide: LLKEKRKHFQAEQNSSQEYLRGEI
modifications: Limits taken from PDB 6EWU (isolated NDD). Residue 1 is Gly as in the entity, possibly a SUMO-cleavage/cloning replacement of the native Met. In vivo, the variant was in full-length Kj12C.
What is called Kd is the constant that tells how readily two partners part at equilibrium. A higher Kd goes with weaker binding. With B1, the equilibrium dissociation constant (Kd) in assay [1] is 80 µM.

B2: Kj12A-^NDD (N-terminal docking domain of Kj12A) (domain or fragment)
chain: MKNAAQIVDEALNQGITLFVADNRLQYETSRDNIPEELLNEWKYYRQDLIDFLQQLDAKEETQ
On to B2, for which the Kd in assay [2] was above 100 µM.

B3: Kj12B-^NDD (N-terminal docking domain of Kj12B) (domain or fragment)
chain: MKNAAKIVNEALNQGITLFVSDNKLKYKTNRDSIPSELLEEWKQHKQELIDFLTQLESEEES
Turning to B3, the dissociation constant (Kd) in assay [2] was above 100 µM.

B4: Kj12C-^NDD (N-terminal docking domain of Kj12C) (domain or fragment)
chain: GIDAAQIVDEALEQGITLFVVNNRLQYETSRDSIPTELLNKWKQHKQELIDFLNQLDSEEQTK
As to B4, the equilibrium dissociation constant (Kd) in assay [3], in assay [4] and in assay [5] was above 100 µM in each case.
